This note sets out measurements from US6153580.

The target in this assay is β-casein.

Turning to Hin47 Ser-197→alanine analog (enzyme), the protease activity on the substrate β-casein was below 10%.
